The supplement of paper PMC9732359
± gives the uncertainty stated by the source.

Test: protein stability index of a GFP-peptide fusion (yeast GPS) (PSI 1-4); higher = more stable; sorted into four equal gates, so the index is relative within each strain
In short: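 Mid-log yeast cultures in leucine-free medium, carrying a pooled plasmid library, were sorted into four equal gates by their GFP/Cherry fluorescence ratio. Each plasmid expressed Cherry along with GFP fused upstream of a tiled 17-residue yeast protein peptide. Plasmids recovered from each gate were PCR-amplified and Illumina-sequenced, with reads assigned to strains by barcodes. The protein stability index was obtained by summing each gate's read frequency weighted by its gate number.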

Sequence	protein stability index (doa10∆)	protein stability index (pdr5∆)	protein stability index (san1∆)	protein stability index (ubr1∆)
HPKLIKNKSGKIFVETK [FAS1]	2.3 ± 0.067	2.76 ± 0.067	2.47 ± 0.13	2.67 ± 0.1
GGESDSALILMYKGFGL [UBP6]	3.37 ± 0.07	3.41 ± 0.076	3.15 ± 0.085	3.29 ± 0.055
AQRLQISDYQQLESIYF [SWI1]	2.38 ± 0.05	1.95 ± 0.027	2.58 ± 0.043	2.76 ± 0.046
SADDDVNNGNIPSQRGT [SIR3]	2.97 ± 0.24	3.01 ± 0.1	2.67 ± 0.11	2.86 ± 0.11
KEMTLQKNMNDLLRSQL [YIL149C/MLP2]	3.08 ± 0.049	2.43 ± 0.052	2.19 ± 0.082	2.64 ± 0.046
SILGKFCPIVEEIVSNS [YCS4]	1.95 ± 0.091	1.51 ± 0.12	1.6 ± 0.14	1.55 ± 0.066
STYRLEDVLSSFYRVEK [SSN2]	2.09 ± 0.074	2.34 ± 0.073	1.87 ± 0.1	2.48 ± 0.094
QYESQAPDGSASISLPN [SWP82]	2.97 ± 0.055	2.61 ± 0.05	2.92 ± 0.038	2.83 ± 0.029
PNGEGSKTWETYEMRIH [RPS20]	3.09 ± 0.091	3.35 ± 0.069	3.05 ± 0.095	3.33 ± 0.045
GIKAKHDKNIQKLLKQL [ISW2]	2.41 ± 0.048	2.45 ± 0.048	2.45 ± 0.051	2.79 ± 0.033
LYASDYASYFPYLLETY [RPN7]	1.62 ± 0.077	1.83 ± 0.086	1.39 ± 0.09	1.18 ± 0.044
GFIDASCIAVMAGLMHF [RRP45]	1.48 ± 0.041	1.55 ± 0.04	1.85 ± 0.082	1.46 ± 0.031
KMIDFATLSKLKKKYQI [SIR3]	2.9 ± 0.11	3.35 ± 0.1	3.53 ± 0.051	3.47 ± 0.048
NGQYAAFVKDMQVYLVP [RPC37]	2.67 ± 0.12	1.52 ± 0.089	1.4 ± 0.073	1.83 ± 0.12
KPAFSFGAKSDEKKDSD [YJL041W/NSP1]	3.35 ± 0.087	3.25 ± 0.069	3.21 ± 0.058	3.46 ± 0.056
SPLDIYSDEASAQKKRF [RPS2]	2.74 ± 0.092	2.86 ± 0.082	3.03 ± 0.07	3.03 ± 0.061
YDRHQSSSKQQSRLFIN [SMC4]				3.31 ± 0.2
YVEAQHKLVFVVRIKGI [RPL7A]	1.09 ± 0.058	1.19 ± 0.054	1.25 ± 0.094	1.21 ± 0.053
NTHNKSTKRVTKHPSLK [POP7]	2.6 ± 0.07	2.78 ± 0.062	2.67 ± 0.044	2.72 ± 0.046
LSPSGHKTFLVANVKDL [RPL32]		3.33 ± 0.26	2.84 ± 0.095	2.84 ± 0.17
DEEYPVKVKVSYQKLLK [PRP8]	3.03 ± 0.091	1.86 ± 0.078	1.91 ± 0.15	2.6 ± 0.054
KPNLNYFKSILLNKNTG [SWI1]	2.17 ± 0.058	2.19 ± 0.044	1.76 ± 0.066	1.75 ± 0.038
PSTKVASSAVMNRRKIA [YLR335W/NUP2]	1.41 ± 0.071	1.77 ± 0.062	2.14 ± 0.12	2.38 ± 0.073
PRLEKLINEILLKSNDP [RGR1]	1.68 ± 0.059	2.01 ± 0.045	1.75 ± 0.079	1.86 ± 0.039
KKIKGKSIQDIVGLATL [SRP21]	3.12 ± 0.039	3.22 ± 0.035	3.177 ± 0.026	3.116 ± 0.031
QEPSASQVKDSVTETES [SRP68]	3.27 ± 0.13	2.93 ± 0.18	3.14 ± 0.18	2.81 ± 0.19

Sequence	protein stability index (doa10∆)	protein stability index (pdr5∆)	protein stability index (san1∆)	protein stability index (ubr1∆)
IEDKENSESTTQGGNVN [RPT5]	3.59 ± 0.14	3.31 ± 0.14	3.46 ± 0.17	3.6 ± 0.11
AKRNLDANPSSQIIARN [SMC2]	2.49 ± 0.083	2.79 ± 0.076	3.09 ± 0.095	2.92 ± 0.065
IEIKISDPLTVFSESCS [SNU114]	2.33 ± 0.071	2.55 ± 0.073	2.42 ± 0.052	2.45 ± 0.06
EPNSAKKIRFLQLIIFL [RGR1]	1.66 ± 0.11	2.42 ± 0.1	2.89 ± 0.3	
SDNVYLKLLVKLYTFLA [RPL18A]	2.12 ± 0.098	1.99 ± 0.099	1.67 ± 0.084	2.43 ± 0.084
TLSHLRRTNTPIGRDGK [RPB2]	2.14 ± 0.043	2.26 ± 0.038	2.24 ± 0.057	2.08 ± 0.036
DEEMLTSCTIPKAVVDH [GAL11]	2.94 ± 0.085	2.77 ± 0.076	2.44 ± 0.12	2.9 ± 0.076
NSRGKFDDACNQIWNIA [SSN2]	3.04 ± 0.15	3.01 ± 0.1	2.87 ± 0.12	3.09 ± 0.14
VSKKELYAIKKVTLNKE [BRR2]	1.73 ± 0.072	2.01 ± 0.11		1.6 ± 0.085
NESFNRRISSMPGGYFH [YAR002W/NUP60]	2.88 ± 0.09	3.17 ± 0.089	3.07 ± 0.099	3.04 ± 0.043
EPDLESQISKAEMEADS [SMC4]	2.89 ± 0.078	3.39 ± 0.18	3.43 ± 0.069	2.55 ± 0.17
LKKNNYNSFPHSNLEKI [SIR4]	3.06 ± 0.099	3.27 ± 0.094	3.19 ± 0.053	3.17 ± 0.054
AEQLKISLSVHTLALEF [RRP46]	2.1 ± 0.058	2.29 ± 0.044	2.37 ± 0.063	2.25 ± 0.048
RAPKANGALDPKMGVSS [RPO31]	3.12 ± 0.23	3.11 ± 0.16	3.05 ± 0.093	3.04 ± 0.08
VRFIGDSVAAIGIPVNK [QCR2]	2.83 ± 0.13	2.52 ± 0.16	2.4 ± 0.14	3.02 ± 0.2
QQLLKGLSLSFSKKLDL [DSN1]	3.13 ± 0.076	3.1 ± 0.088	2.74 ± 0.069	3.16 ± 0.075
SQIRLYAKFKRNTMMIQ [RGR1]	2.44 ± 0.21	2.37 ± 0.11	2.14 ± 0.11	2.61 ± 0.13
TATTGKRKPAKSSSNRS [RPN4]	2.68 ± 0.065	2.96 ± 0.07	2.68 ± 0.047	2.85 ± 0.047
GINSKSGKPFIAGFDLI [PUP3]	3.11 ± 0.089	3.29 ± 0.094	3.3 ± 0.13	3.06 ± 0.081
GDRQRLGEEHPLQVARC [RPT1]	1.43 ± 0.097	1.32 ± 0.19	3.25 ± 0.22	1.53 ± 0.15
QTRAKLLDNEIRIFRSE [RPT5]	3.15 ± 0.12	3.37 ± 0.093	3.22 ± 0.051	2.95 ± 0.056
EYDTPALFFDPSLNPIP [PRP8]	2.82 ± 0.056	2.87 ± 0.036	2.65 ± 0.048	2.69 ± 0.036
NATVVDSFKYEPLAPGN [YLR335W/NUP2]	2.95 ± 0.057	3.02 ± 0.054	2.98 ± 0.053	2.94 ± 0.051
ELLRLANEQLKLFNRIV [CSN12]	2.3 ± 0.069	2.55 ± 0.082	1.64 ± 0.085	1.92 ± 0.07
KTLVALEKQEDYIDNLV [RPC37]	3.23 ± 0.11	2.97 ± 0.14	2.97 ± 0.16	3.07 ± 0.11
VRMRLAQLTHSLRRIRD [MED8]	1.45 ± 0.041	2.04 ± 0.063	1.49 ± 0.087	1.91 ± 0.049

Sequence	protein stability index (doa10∆)	protein stability index (pdr5∆)	protein stability index (san1∆)	protein stability index (ubr1∆)
NAIQTEVYGINEESTNE [SIR4]		3.03 ± 0.3	2.9 ± 0.25	
SYLSETLISRISSLFTI [YML103C/NUP188]	1.77 ± 0.062	1.89 ± 0.064	1.5 ± 0.074	2.05 ± 0.083
LGLLTPEVVELCQKSPV [FAS2]	2.28 ± 0.071	2.73 ± 0.066	2.11 ± 0.12	2.93 ± 0.081
SEFANQNQGGAQAPFDI [ROX3]			3.28 ± 0.22	3.48 ± 0.094
ALAFCEIGITQQRIVSA [RRP4]	1.71 ± 0.11	2.31 ± 0.11	1.92 ± 0.23	2.25 ± 0.075
IRIYDLGKKKATVDEFP [RPL10]	1.47 ± 0.054	1.51 ± 0.048	1.21 ± 0.098	1.29 ± 0.035
GNASLKYIALQVIVDIF [YCG1]	1.2 ± 0.069	1.36 ± 0.076	1.19 ± 0.12	1.54 ± 0.15
VLKVDKRFMNTSQNPQR [BRR2]	3 ± 0.056	3.2 ± 0.06	3.21 ± 0.069	2.99 ± 0.04
AFIDERASDLRMTIRTR [RRP43]	1.81 ± 0.18	1.57 ± 0.11	1.24 ± 0.25	1.39 ± 0.12
FLVLYDVKTAEEASQLI [NUT1]	1.45 ± 0.047	1.93 ± 0.077	2.78 ± 0.061	3.01 ± 0.047
MNTVPFTSAPIEVTIGI [AAR2]	1.49 ± 0.092	2.01 ± 0.12	1.47 ± 0.22	1.64 ± 0.083
EGTRNRFSYSPPKEGNY [YMR129W/POM152]	3.19 ± 0.13	3.06 ± 0.062	2.88 ± 0.043	3.13 ± 0.042
FILELEHKTPELISFKE [YIL149C/MLP2]	2.86 ± 0.081	3.05 ± 0.086	2.96 ± 0.1	3.29 ± 0.086
HCGALNGVVKKAAAGAG [RPO31]	1.35 ± 0.27	2.38 ± 0.19		
RFEVINNETEQLKAEEK [SMC1]	1.72 ± 0.08	2.06 ± 0.092	3.05 ± 0.13	2.6 ± 0.12
HVFQYANRPRLVGRKPA [RPC37]	2.86 ± 0.23		2.28 ± 0.28	2.69 ± 0.082
LAAERKVTSTLLEQDTS [PRE9]	2.46 ± 0.066	2.58 ± 0.082	2.65 ± 0.082	2.36 ± 0.089
RGFGKINKQRVPLSDNA [RPL7A]	3.03 ± 0.091	3.5 ± 0.11	3.29 ± 0.094	2.91 ± 0.066
DQLAVSPEQIDASPDSL [YCS4]	1.62 ± 0.071	1.89 ± 0.081	1.65 ± 0.1	1.86 ± 0.06
PLQSMDIEQLEYSRDCF [RPB3]	3.16 ± 0.074	3.17 ± 0.068	3.21 ± 0.08	2.93 ± 0.11
TFLLNNKNIDIGLLNKS [RPN2]	3.38 ± 0.21	3.11 ± 0.27		2.61 ± 0.11
GALPPDLSLIVKARHGG [CYT1]	1.83 ± 0.23	1.97 ± 0.14		2.23 ± 0.17
VTEDGTVVTVVSTAKFS [RPL22A]	2.52 ± 0.13	2.81 ± 0.14	2.2 ± 0.12	2.59 ± 0.061
SLNYKFTTNKSKDVSRL [SRP21]	3.13 ± 0.12	3.04 ± 0.088	3.08 ± 0.081	3.14 ± 0.072
NSESTTQGGNVNLDNTA [RPT5]	3.53 ± 0.11	3.41 ± 0.12	3.27 ± 0.09	3.11 ± 0.087
NHFIFNVESAGAMTPEE [RPC40]	2.01 ± 0.059	2.02 ± 0.061	2.4 ± 0.062	2.47 ± 0.045
